Assay results: US20220033505A1 (Janssen / Centocor, published 2022)

How the values were obtained:
[1] = molecular target: T1, CD3 on human T cells (Jurkat cells, primary human T cells) (human, UniProt P07766 23-207); test: T cell binding (method not described)
T1 construct: whole, on cells; also called CD3 epsilon; T cell receptor complex

[2] = molecular target: T2, HLA-G1 on K562 cells (K562-HLA-G) (human); test: K562-HLA-G cell binding (method not described)
T2 construct: also called cells expressing HLA-G

[3] = molecular target: T3, MHGW8 (B2m-3(G4S)-HLA-G1-G4S-Avi), soluble HLA-G1 extracellular domain (human, biotinylated (Avi tag) in the ligand blocking assay); test: competition, flow cytometry: antibody titrated against MHGW8-dextramer binding to ILT4 on HEK293T cells (competitor ILT4)
T3 construct: also called HLA-G (MHGW8); recombinant biotinylated HLA-G1 (MHGW8)

[4] = molecular target: T2, HLA-G1 on K562 cells (K562-HLA-G); test: flow cytometry; IgG1 mAb on cells expressing HLA-G
[5] = molecular target: T3, MHGW8 (B2m-3(G4S)-HLA-G1-G4S-Avi), …; test: competition, flow cytometry: antibody titrated against MHGW8-dextramer binding to ILT2 on HEK293T cells (competitor ILT2)

T1 sequence (P07766 23-207): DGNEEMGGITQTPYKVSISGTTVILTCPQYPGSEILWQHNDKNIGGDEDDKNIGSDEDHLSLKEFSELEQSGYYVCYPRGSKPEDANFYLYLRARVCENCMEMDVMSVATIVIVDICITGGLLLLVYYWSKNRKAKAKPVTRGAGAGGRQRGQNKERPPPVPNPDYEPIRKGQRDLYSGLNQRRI

B1: HC3B258 (CD3B376-Fab-Fc x MHGB732-LH-scFv-Fc) (bispecific antibody, human IgG1, lambda, L234A L235A)
heavy: QVQLQQSGPRLVRPSQTLSLTCAISGDSVFNNNAAWSWIRQSPSRGLEWLGRTYYRSKWLYDYAVSVKSRITVNPDTSRNQFTLQLNSVTPEDTALYYCARGYSSSFDYWGQGTLVTVSSASTKGPSVFPLAPSSKSTSGGTAALGCLVKDYFPEPVTVSWNSGALTSGVHTFPAVLQSSGLYSLSSVVTVPSSSLGTQTYICNVNHKPSNTKVDKKVEPKSCDKTHTCPPCPAPEAAGGPSVFLFPPKPKDTLMISRTPEVTCVVVSVSHEDPEVKFNWYVDGVEVHNAKTKPREEQYNSTYRVVSVLTVLHQDWLNGKEYKCKVSNKALPAPIEKTISKAKGQPREPQVYVYPPSREEMTKNQVSLTCLVKGFYPSDIAVEWESNGQPENNYKTTPPVLDSDGSFALVSKLTVDKSRWQQGNVFSCSVMHEALHNHYTQKSLSLSPGK
light: QSALTQPASVSGSPGQSITISCTGTSSNIGTYKFVSWYQQHPDKAPKVLLYEVSKRPSGVSSRFSGSKSGNTASLTISGLQAEDQADYHCVSYAGSGTLLFGGGTKLTVLGQPKAAPSVTLFPPSSEELQANKATLVCLISDFYPGAVTVAWKADSSPVKAGVETTTPSKQSNNKYAASSYLSLTPEQWKSHRSYSCQVTHEGSTVEKTVAPTECS
scFv: DIVMTQSPDSLAVSLGERATINCKSSQSVLHSSNNKNYLTWFQQKPGQPPKLLIYWASTRESGVPDRFSGSGSGTDFTLTISSLQAEDVAVYYCHQYYSTPPTFGQGTKVEIKGGSEGKSSGSGSESKSTGGSQVQLQQSGPGLVKPSQTLSLTCAISGDSVSSNSAAWNWIRQSPSRGLEWLGRTYYRSKWYNDYAVSVKSRITINPDTSKNQISLQLNSVTPEDTAVYYCAGDRRYGIVGLPFAYWGQGTLVTVSSEPKSSDKTHTCPPCPAPEAAGGPSVFLFPPKPKDTLMISRTPEVTCVVVSVSHEDPEVKFNWYVDGVEVHNAKTKPREEQYNSTYRVVSVLTVLHQDWLNGKEYKCKVSNKALPAPIEKTISKAKGQPREPQVYVLPPSREEMTKNQVSLLCLVKGFYPSDIAVEWESNGQPENNYLTWPPVLDSDGSFFLYSKLTVDKSRWQQGNVFSCSVMHEALHNHYTQKSLSLSPGK
What does the source list for B1?
EC50 [1]: 60 nM; EC50 [2]: 11 nM

B2: MHGB669 (antibody, human IgG1, kappa, V domains shown)
VH: QVQLQQSGPGLVRPSQTLSVTCAISGDSVSSNSASWNWIRQSPSRGLEWLGRTYYRSEWFNDYAVSVKSRVTINPDTSKNQLSLQLNSVIPEDTAVYYCAREARIGVAGKGFDYWGQGTLVTVSS
VL: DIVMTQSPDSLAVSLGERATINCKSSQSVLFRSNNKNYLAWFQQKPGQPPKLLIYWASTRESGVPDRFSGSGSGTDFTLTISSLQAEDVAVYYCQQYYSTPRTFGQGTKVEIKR
notes: IgG1 mAb
B2 was tested. Which EC50 [3] did it give?
The EC50 was 1.59 nM.

What about the “Geomean fluorescence signal (maximum value for binding)” value (“Geomean fluorescence signal” for short) [4] of the same binder?
The value was 616000.

And the EC50 [5]?
Its EC50 is 1.7 nM.

B3: MHGB672 (antibody, human IgG1, kappa, V domains shown)
VH: QVQLQQSGPGLVKPSQTLSLTCAISGDSVSSNRAAWNWIRQTPSRGLEWLGRTYYRSEWYNDYAVSVKSRITINPDTSKNQFSLQLNSVTPEDTAVYYCARVRAAVPFDYWGQGTLVTVSS
VL: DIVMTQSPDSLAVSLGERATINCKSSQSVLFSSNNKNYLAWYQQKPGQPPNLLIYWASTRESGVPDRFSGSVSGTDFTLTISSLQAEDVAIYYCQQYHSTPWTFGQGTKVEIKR
notes: IgG1 mAb
How did the EC50 [3] turn out when B3 was run?
The EC50 was 1.61 nM.

What about the “Geomean fluorescence signal” value [4] of the same binder?
The value was 522000.

What about the EC50 [5] of the same binder?
The EC50 was 2.12 nM.

B4: MHGB688 (antibody, human IgG1, kappa, V domains shown)
VH: EVQLLESGPGLVKPSQTLSLTCVISGDSVSSNRAAWNWIRQSPSRGLEWLGRTYYRSKWYNDYAVSVKSRITINSDTSKNQISLQLNSVTPEDTAVYYCARVRPGIPFDYWGQGTPVTVSS
VL: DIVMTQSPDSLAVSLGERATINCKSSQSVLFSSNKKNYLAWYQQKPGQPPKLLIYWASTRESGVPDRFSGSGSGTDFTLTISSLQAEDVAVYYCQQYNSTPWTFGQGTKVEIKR
notes: IgG1 mAb
With B4 as the binder, how does the EC50 [3] read?
The EC50 was 1.42 nM.

And the “Geomean fluorescence signal” value [4]?
Its value is 482000.

And the EC50 [5]?
The EC50 was 1.72 nM.

B5: MHGB694 (antibody, human IgG1, kappa, V domains shown)
VH: EVQLLESGGGLVQPGGSLRLSCAASGFTFSSYAMHWVRQAPGKGLDWVSGISGSGFSTYYVDSVKGRFTISRDNSKHTLYLQMNSLRAEDTAVYYCAKDNLVAGTVFDYWGQGTLVTVSS
VL: not shown
notes: IgG1 mAb
Which EC50 [3] does the source give for B5 here?
Its EC50 is 0.2 nM.

What about the “Geomean fluorescence signal” value [4] of the same binder?
The value was 473000.

And the EC50 [5]?
Its EC50 is 0.64 nM.
